Like-named read-outs stand apart in the source and are kept apart here. Blank lines part the entries; values can stand above or below the binder they belong to. Where no end group is shown, it is not given here.
B1: TCE-39 (anti-CD3 scFv P41S, A49G, N87S, L150F, T151S, G163R, P175A, K181T, T200V, A202D, L208I, G211N, L217I, S218T, V220A, P222A, E223D, A226S, E227D; … (bispecific antibody)
light: DIQLTQSPSSLSASVGDRVSITCKASQDVSIAVAWYQQKPGKAPKLLIYSASYRYTGVPDRFSGSGSGTDFTLTISSLQPEDFAVYYCQQHYITPLTFGAGTKVEIKRTVAAPSVFIFPPSDEQLKSGTASVVCLLNNFYPREAKVQWKVDNALQSGNSQESVTEQDSKDSTYSLSSTLTLSKADYEKHKVYACEVTHQGLSSPVTKSFNRGEC
heavy: EVQLVESGGGLVQPGGSLKLSCAASGFTFNKYAMNWVRQASGKGLEWVGRIRSKYNNYATYYADSVKDRFTISRDDSKNTAYLQMNSLKTEDTAVYYCVRHGNFGNSYISYWAYWGQGTLVTVSSGGGGSGGGGSGGGGSQTVVTQEPSFSVSPGGTVTLTCRSSTGAVTSGNYANWVQQTPGQAPRGLIGGTKFLAPGVPDRFSGSILGNKAALTITGAQADDESDYYCVLWYSNRWVFGGGTKLTVLGGGGSQVQLQQSGSELKKPGASVKVSCKASGYTFTNYGMNWVKQAPGQGLKWMGWINTYTGEPTYTDDFKGRFAFSLDTSVSTAYLQISSLKADDTAVYFCARGGFGSSYWYADVWGQGSLVTVSSASTKGPSVFPLAPSSKSTSGGTAALGCLVKDYFPEPVTVSWNSGALTSGVHTFPAVLQSSGLYSLSSVVTVPSSSLGTQTYICNVNHKPSNTKVDKKVEPKSC
notes: scFv on the Fab heavy chain
B2: Peptide-73 (peptide)
peptide: VYCGPEFDESVGCA
modifications: cysteine pairing not given here; also: biotinylated, site not given here
notes: mask peptide for the CD3 scFv

Tests used:
[1] = target: T1, Human TROP2 ECD (31-274 AA), biotinylated (human, UniProt P09758 31-274, biotinylated (site not stated)); assay: ELISA, captured biotin-TROP2
T1 construct: also called TROP2-biotin; Trop2-biotin
T1 sequence: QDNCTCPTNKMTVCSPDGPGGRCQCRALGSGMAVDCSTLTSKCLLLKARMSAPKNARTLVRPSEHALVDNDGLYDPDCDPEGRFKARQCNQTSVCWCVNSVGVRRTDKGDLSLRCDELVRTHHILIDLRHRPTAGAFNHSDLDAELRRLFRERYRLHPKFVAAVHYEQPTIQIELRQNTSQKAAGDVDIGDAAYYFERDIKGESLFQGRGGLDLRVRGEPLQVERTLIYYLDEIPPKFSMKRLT

Peptide-70 = target: T2, Peptide-70 (cysteine pairing not given here; also: biotinylated, site not given here); assay: ELISA, TCE on captured biotin-peptide
T2 construct: mask peptide for the CD3 scFv
T2 peptide: YLCGPDGDETLACY

Peptide-73 = target: B2; assay: ELISA, TCE on captured biotin-peptide
Peptide-76 = target: T3, Peptide-76 (cysteine pairing not given here; also: biotinylated, site not given here); assay: ELISA, TCE on captured biotin-peptide
T3 construct: mask peptide for the CD3 scFv
T3 peptide: YLCGPDADETLACY

Peptide-77 = target: T4, Peptide-77 (cysteine pairing not given here; also: biotinylated, site not given here); assay: ELISA, TCE on captured biotin-peptide
T4 construct: mask peptide for the CD3 scFv
T4 peptide: YLCGPDTDETLACY

[2] = target: T5, TCE-11 (anti-CD3 scFv H101A; anti-TROP2 wt); assay: competition ELISA, TCE on captured CD3
T5 construct: scFv on the Fab heavy chain; also called TCE-11 (H101A)

[3] = target: T6, TCE-13 (anti-CD3 scFv N103A; anti-TROP2 wt); assay: competition ELISA, TCE on captured CD3
T6 construct: scFv on the Fab heavy chain; also called TCE-13 (N103A)

[4] = target: T7, TCE-14 (anti-CD3 scFv F104A; anti-TROP2 wt); assay: competition ELISA, TCE on captured CD3
T7 construct: scFv on the Fab heavy chain; also called TCE-14 (F104A)

[5] = target: T8, TCE-33 (anti-CD3 scFv F240A; anti-TROP2 wt); assay: competition ELISA, TCE on captured CD3
T8 construct: scFv on the Fab heavy chain; also called TCE-33 (F240A)

[6] = target: T9, TCE-1 (anti-CD3 scFv wt; anti-TROP2 Fab wt); assay: competition ELISA, TCE on captured CD3
T9 construct: anti-CD3 scFv fused to the N-terminus of the anti-TROP2 Fab heavy chain; also called TCE-1 (wt)

[7] = target: T10, TCE-9 (anti-CD3 scFv V99A; anti-TROP2 wt); assay: competition ELISA, TCE on captured CD3
T10 construct: scFv on the Fab heavy chain

[8] = target: T11, TCE-10 (anti-CD3 scFv R100A; anti-TROP2 wt); assay: competition ELISA, TCE on captured CD3
T11 construct: scFv on the Fab heavy chain; also called TCE-10 (R100A)

[9] = target: T5, TCE-11 (anti-CD3 scFv H101A; anti-TROP2 …); assay: competition ELISA, TCE on captured CD3; remark: listed apart in the source
[10] = target: T12, TCE-12 (anti-CD3 scFv G102A; anti-TROP2 wt); assay: competition ELISA, TCE on captured CD3
T12 construct: scFv on the Fab heavy chain

[11] = target: T6, TCE-13 (anti-CD3 scFv N103A; anti-TROP2 …); assay: competition ELISA, TCE on captured CD3; remark: listed apart in the source
[12] = target: T7, TCE-14 (anti-CD3 scFv F104A; anti-TROP2 …); assay: competition ELISA, TCE on captured CD3; remark: listed apart in the source
[13] = target: T13, TCE-15 (anti-CD3 scFv G105A; anti-TROP2 wt); assay: competition ELISA, TCE on captured CD3
T13 construct: scFv on the Fab heavy chain

[14] = target: T14, TCE-16 (anti-CD3 scFv N106A; anti-TROP2 wt); assay: competition ELISA, TCE on captured CD3
T14 construct: scFv on the Fab heavy chain

[15] = target: T15, TCE-17 (anti-CD3 scFv S107A; anti-TROP2 wt); assay: competition ELISA, TCE on captured CD3
T15 construct: scFv on the Fab heavy chain

[16] = target: T16, TCE-18 (anti-CD3 scFv Y108A; anti-TROP2 wt); assay: competition ELISA, TCE on captured CD3
T16 construct: scFv on the Fab heavy chain

[17] = target: T17, TCE-19 (anti-CD3 scFv I109A; anti-TROP2 wt); assay: competition ELISA, TCE on captured CD3
T17 construct: scFv on the Fab heavy chain

[18] = target: T18, TCE-20 (anti-CD3 scFv S110A; anti-TROP2 wt); assay: competition ELISA, TCE on captured CD3
T18 construct: scFv on the Fab heavy chain; also called TCE-20 (S110A)

[19] = target: T19, TCE-24 (anti-CD3 scFv V231A; anti-TROP2 wt); assay: competition ELISA, TCE on captured CD3
T19 construct: scFv on the Fab heavy chain

[20] = target: T20, TCE-25 (anti-CD3 scFv L232A; anti-TROP2 wt); assay: competition ELISA, TCE on captured CD3
T20 construct: scFv on the Fab heavy chain

[21] = target: T21, TCE-27 (anti-CD3 scFv Y234A; anti-TROP2 wt); assay: competition ELISA, TCE on captured CD3
T21 construct: scFv on the Fab heavy chain

[22] = target: T22, TCE-28 (anti-CD3 scFv S235A; anti-TROP2 wt); assay: competition ELISA, TCE on captured CD3
T22 construct: scFv on the Fab heavy chain

[23] = target: T23, TCE-29 (anti-CD3 scFv N236A; anti-TROP2 wt); assay: competition ELISA, TCE on captured CD3
T23 construct: scFv on the Fab heavy chain

[24] = target: T24, TCE-30 (anti-CD3 scFv R237A; anti-TROP2 wt); assay: competition ELISA, TCE on captured CD3
T24 construct: scFv on the Fab heavy chain

[25] = target: T25, TCE-32 (anti-CD3 scFv V239A; anti-TROP2 wt); assay: competition ELISA, TCE on captured CD3
T25 construct: scFv on the Fab heavy chain

[26] = target: T8, TCE-33 (anti-CD3 scFv F240A; anti-TROP2 …); assay: competition ELISA, TCE on captured CD3; remark: listed apart in the source
[27] = target: T26, TCE-7 (anti-CD3 scFv wt; anti-TROP2 F108A); assay: competition ELISA, TCE on captured CD3
T26 construct: scFv on the Fab heavy chain

[28] = target: T27, TCE-36 (anti-CD3 scFv H101A; anti-TROP2 F108A); assay: competition ELISA, TCE on captured CD3
T27 construct: scFv on the Fab heavy chain

[29] = target: T28, TCE-37 (anti-CD3 scFv F104A; anti-TROP2 F108A); assay: competition ELISA, TCE on captured CD3
T28 construct: scFv on the Fab heavy chain

[30] = target: T29, TCE-38 (anti-CD3 scFv F240A; anti-TROP2 F108A); assay: competition ELISA, TCE on captured CD3
T29 construct: scFv on the Fab heavy chain

[31] = target: B1; assay: competition ELISA, TCE on captured CD3
[32] = target: T30, TCE-22 (anti-CD3 scFv W112A; anti-TROP2 wt); assay: competition ELISA, TCE on captured CD3; Table 41 run, peptide series with ceiling >100 µM
T30 construct: scFv on the Fab heavy chain; also called TCE-22 (W112A)

[33] = target: T31, TCE-31 (anti-CD3 scFv W238A; anti-TROP2 wt); assay: as above
T31 construct: scFv on the Fab heavy chain; also called TCE-31 (W238A)

[34] = target: T11, TCE-10 (anti-CD3 scFv R100A; anti-TROP2 …); assay: competition ELISA, TCE on captured CD3; Table 40 peptide panel (FIGS. 91-102), limit >100 µM
[35] = target: T18, TCE-20 (anti-CD3 scFv S110A; anti-TROP2 …); assay: as above
[36] = target: T11, TCE-10 (anti-CD3 scFv R100A; anti-TROP2 …); assay: competition ELISA (IC50 above limit); Table 42 Peptide-73 series (FIGS. 103A-103C), limit >3 µM
[37] = target: T18, TCE-20 (anti-CD3 scFv S110A; anti-TROP2 …); assay: as above
[38] = target: T32, CD3 (biotinylated CD3 antigen) (human, UniProt P07766 23-126, limits assumed, biotinylated (site not stated)); assay: ELISA, captured biotin-CD3
T32 construct: also called CD3ε; human CD3

[39] = target: T1, Human TROP2 ECD (31-274 AA), …; assay: ELISA, captured biotin-TROP2; remark: listed apart in the source

Binder: B1
EC50 [1]: 5.92 nM
EC50 (Peptide-70): 0.33 nM
EC50 (Peptide-73): 0.41 nM
EC50 (Peptide-76): 1.39 nM
EC50 (Peptide-77): 18.8 nM

Binder: B2
IC50 [2]: 2930 nM
IC50 [3]: 4070 nM
IC50 [4]: 200 nM
IC50 [5]: 3020 nM
IC50 [6]: 140 nM
IC50 [7]: 160 nM
IC50 [8]: > 3000 nM
IC50 [9]: 1220 nM
IC50 [10]: 230 nM
IC50 [11]: 820 nM
IC50 [12]: 70 nM
IC50 [13]: 310 nM
IC50 [14]: 50 nM
IC50 [15]: 100 nM
IC50 [16]: 110 nM
IC50 [17]: 420 nM
IC50 [18]: > 3000 nM
IC50 [19]: 230 nM
IC50 [20]: 650 nM
IC50 [21]: 620 nM
IC50 [22]: 100 nM
IC50 [23]: 230 nM
IC50 [24]: 140 nM
IC50 [25]: 60 nM
IC50 [26]: 1900 nM
IC50 [27]: 60 nM
IC50 [28]: 1630 nM
IC50 [29]: 10 nM
IC50 [30]: 4620 nM
IC50 [31]: 40 nM
IC50 [32]: 39100 nM
IC50 [33]: 25900 nM
IC50 [34]: 16800 nM
IC50 [35]: 2200 nM
IC50 [36]: 3000 nM
IC50 [37]: 3000 nM

EC50 [38]: 1080 nM
EC50 [39]: 694 nM
B3: PC-31 (anti-TROP2 D109A; anti-CD3 F104A), masked polypeptide complex (bispecific antibody)
light: GGVDFCGLYHWPICYQGGGGSGGLSGRSDAGSPLGLAGSGGSDIQLTQSPSSLSASVGDRVSITCKASQDVSIAVAWYQQKPGKAPKLLIYSASYRYTGVPDRFSGSGSGTDFTLTISSLQPEDFAVYYCQQHYITPLTFGAGTKVEIKRTVAAPSVFIFPPSDEQLKSGTASVVCLLNNFYPREAKVQWKVDNALQSGNSQESVTEQDSKDSTYSLSSTLTLSKADYEKHKVYACEVTHQGLSSPVTKSFNRGEC
heavy: not shown
notes: LC: TROP2 mask peptide + cleavable linker + anti-TROP2 LC; HC: anti-albumin single domain + CD3 mask peptide + cleavable linker + anti-CD3 scFv + anti-TROP2 Fab HC

Source: patent publication US20230357429A1 (JANUX THERAPEUTICS, published 2023)
